Experimental data taken from WO2008118324A2 (dated 2008).

T1: human UPK-Ib expressed on the surface of cells (human, UniProt O75841 1-260)
T1 construct: whole, on cells; also called uroplakin Ib; UPK-1
T1 sequence (looked up): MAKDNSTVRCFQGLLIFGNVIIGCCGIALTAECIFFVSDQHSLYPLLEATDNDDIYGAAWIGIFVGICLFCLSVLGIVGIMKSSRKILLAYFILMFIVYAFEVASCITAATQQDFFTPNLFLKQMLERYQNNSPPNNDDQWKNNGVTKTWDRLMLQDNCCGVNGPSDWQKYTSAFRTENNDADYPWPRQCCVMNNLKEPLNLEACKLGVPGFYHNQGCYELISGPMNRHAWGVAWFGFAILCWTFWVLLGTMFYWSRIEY


Legend:
[1] = target: T1, human UPK-Ib expressed on the surface …; test: flow cytometry on a transitional cell carcinoma line
[2] = target: T1, human UPK-Ib expressed on the surface …; test: flow cytometry, antibody at 2 ug/mL on A549 and EKVX cells

| binding result [1] | binding result [2] | Binder |
| --- | --- | --- |
| binds |  | 5H9 monoclonal antibody (murine) (antibody, V domains shown, Mouse (BALB/c) hybridoma antibody, tested as culture supernatant and detected with anti-mouse IgG; also called 5H9 MAb; murine 5H9) VH: EVQLVESGGGLVQPKGSLKLSCAASGFSFNTYAMNWVRQAPGKGLEWVARIRSKSNNYATYYADSVKDRFTISRDDSESMLYLQMNNLKTEDTAMYYCVRQGDGYYVGWFAYWGQGTLVTVSA VL: DIQMTQTTSSLSASLGDRVTISCRASQDISNYLNWYQQKPDGTVKLLIYYTSRLHSGVPSRFSGSGSGTDYSLTISNLEQEDIATYFCQQGNTLPFTFGSGTKLEIK |
|  | binds | chimeric 1G9 containing the enhancing Fc mutant (antibody, V domains shown, domain: C-kappa segment; They are not tied to this construct; also called chlG9-mut; chlG9 Fc mut; not shown: human IgG1 constant region carrying the 'enhancing Fc mutant') VH: QVQLQQPGAELVRPGSSVKVSCKASGYTFSSYWMHWVKQRPIQGLEWIGNIDPSDSETHYNQKFKDKATLTVDKSSSTAYMQLSSLTSEDSAVYYCARSGAGTGPWLAYWGQGTLVTVSA VL: DIVMTQSPSSLTVTAGEKVTMTCKSSQSLLNSGNQKNYLTWYQQKPGQPPNPLIYWASTRESGVPDRFTGSGSGTDFTLTISSVQAEDLAVYYCQNDYSYPFTFGSGTKLEIKR |
| binds |  | 1G9 monoclonal antibody (murine) (antibody, V domains shown, Mouse (BALB/c) hybridoma antibody, tested as culture supernatant and detected with anti-mouse IgG; also called 1G9 MAb) VH: QVQLQQPGAELVRPGSSVKVSCKASGYTFSSYWMHWVKQRPIQGLEWIGNIDPSDSETHYNQKFKDKATLTVDKSSSTAYMQLSSLTSEDSAVYYCARSGAGTGPWLAYWGQGTLVTVSA VL: DIVMTQSPSSLTVTAGEKVTMTCKSSQSLLNSGNQKNYLTWYQQKPGQPPNPLIYWASTRESGVPDRFTGSGSGTDFTLTISSVQAEDLAVYYCQNDYSYPFTFGSGTKLEIK |
